In patent publication US20240400651A1 (VAL CHUM LIMITED PARTNERSHIP, published 2024):

Molecular target: SARS-CoV-2 receptor binding domain (RBD), residues 319-591 of SARS-CoV-2 S (SARS-CoV-2, UniProt P0DTC2 319-591)
Experiment: BLI, mAb on anti-human Fc probe (FIGS. 5A-E)

B1: Mab #1 (antibody, V domains shown)
VH: EVQLVESGPEVKKPGTSVKVPCKASGFTFTSSAVQWVRQARGQRLEWIGWIVVGSGNTNYAQKFQERVTITRDMSTSTAYMELSSLRSEDTAVYYCAAPSCSGGRCYDGFDIWGQGTMVTVSS
VL: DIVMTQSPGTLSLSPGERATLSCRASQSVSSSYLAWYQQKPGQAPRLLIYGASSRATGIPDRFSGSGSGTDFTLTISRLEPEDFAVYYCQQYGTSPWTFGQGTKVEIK
Does B1 bind?
Result: binds
